Reference: article PMC7150476

Target: STAT3 (UniProt P40763)
Test: co-immunoprecipitation, Flag/Myc tags, Western blot
Settings: reference: wild-type PLSCR1-2Flag; sites Y69,Y74

“PLSCR1 (from UniProt O15162) PLSCR1-Y69,74F-2Flag” was tested, and the “binding against the reference” value was “weaker”.
